Test results from the supplement of paper PMC9112550, “Optimization of the antimicrobial peptide Bac7 by deep mutational scanning” (BMC Biology, 2022).

tested on: Escherichia coli TOP10; experiment: shrunken log2 fold change of peptide-encoding DNA abundance (4.5 h post-induction vs induction); higher = less antimicrobial activity (less host growth inhibition); details: time post-induction: 4.5 h; library: site-saturation at positions 5, 18, 19, 20
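Also: peptides expressed intracellularly from a pBAD plasmid library in pooled LB shake-flask culture, induced with 0.3% L-arabinose, DNA abundance read by NGS, three biological replicates, DESeq2 with apeglm shrinkage.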

Sequence	shrunken log2 fold change
RRIRTRPPRLPRPRPRPNWRPRP	0.176
RRIRPRPPRLPRPRPRPKQKPRP	0.123
RRIRVRPPRLPRPRPRPQHVPRP	-0.0853
RRIRYRPPRLPRPRPRPHMQPRP	-1.07
RRIRMRPPRLPRPRPRPTYWPRP	0.169
RRIRYRPPRLPRPRPRPPFTPRP	-0.244
RRIRMRPPRLPRPRPRPWRMPRP	0.0682
RRIRGRPPRLPRPRPRPDPTPRP	1.06
RRIRPRPPRLPRPRPRPVNAPRP	0.138
RRIRIRPPRLPRPRPRPPDTPRP	-0.116
RRIRWRPPRLPRPRPRPDLKPRP	0.12
RRIRPRPPRLPRPRPRPHYCPRP	-0.997
RRIRWRPPRLPRPRPRPQSHPRP	0.105
RRIRSRPPRLPRPRPRPNTWPRP	-0.637
RRIRCRPPRLPRPRPRPRPCPRP	0.339
RRIRWRPPRLPRPRPRPRDKPRP	0.347
RRIRVRPPRLPRPRPRPRLRPRP	0.311
RRIRMRPPRLPRPRPRPRWLPRP	0.459
RRIRIRPPRLPRPRPRPRYPPRP	-0.0444
RRIRPRPPRLPRPRPRPSIAPRP	-0.131
RRIRIRPPRLPRPRPRPGAPPRP	0.416
RRIRFRPPRLPRPRPRPGACPRP	-0.0223
RRIRIRPPRLPRPRPRPVDVPRP	-0.675
RRIRHRPPRLPRPRPRPGRRPRP	0.525
RRIRRRPPRLPRPRPRPRHEPRP	0.148

Sequence	shrunken log2 fold change
RRIRVRPPRLPRPRPRPENSPRP	-0.522
RRIRQRPPRLPRPRPRPIDLPRP	-0.194
RRIRFRPPRLPRPRPRPVYRPRP	-0.285
RRIRARPPRLPRPRPRPYGCPRP	-0.55
RRIRLRPPRLPRPRPRPSSQPRP	-0.0758
RRIRARPPRLPRPRPRPEVPPRP	0.162
RRIRWRPPRLPRPRPRPDRPPRP	-0.0134
RRIRDRPPRLPRPRPRPIDAPRP	-0.264
RRIRERPPRLPRPRPRPAQPPRP	0.0203
RRIRIRPPRLPRPRPRPCECPRP	0.0112
RRIRFRPPRLPRPRPRPWTPPRP	-0.26
RRIRFRPPRLPRPRPRPRECPRP	0.277
RRIRRRPPRLPRPRPRPDTEPRP	0.0209
RRIRMRPPRLPRPRPRPSVMPRP	-0.194
RRIRKRPPRLPRPRPRPMDMPRP	0.15
RRIRNRPPRLPRPRPRPIAEPRP	0.196
RRIRRRPPRLPRPRPRPDIPPRP	-0.22
RRIRLRPPRLPRPRPRPHLRPRP	-0.151
RRIRERPPRLPRPRPRPDWEPRP	0.368
RRIRKRPPRLPRPRPRPHFDPRP	0.275
RRIRPRPPRLPRPRPRPPAYPRP	-0.0312
RRIRWRPPRLPRPRPRPAAMPRP	0.604
RRIRSRPPRLPRPRPRPHMPPRP	-0.401
RRIRNRPPRLPRPRPRPGWSPRP	0.2
RRIRWRPPRLPRPRPRPAIGPRP	0.0325

Sequence	shrunken log2 fold change
RRIRERPPRLPRPRPRPWHDPRP	-0.251
RRIRMRPPRLPRPRPRPPHTPRP	0.824
RRIRCRPPRLPRPRPRPSFMPRP	-0.688
RRIRDRPPRLPRPRPRPKWCPRP	0.135
RRIRERPPRLPRPRPRPNSYPRP	-0.433
RRIRERPPRLPRPRPRPNPFPRP	0.0226
RRIRSRPPRLPRPRPRPLVRPRP	0.0873
RRIRGRPPRLPRPRPRPCDLPRP	0.0268
RRIRRRPPRLPRPRPRPPPSPRP	1.21
RRIRARPPRLPRPRPRPTWAPRP	0.621
RRIRVRPPRLPRPRPRPGPCPRP	-0.128
RRIRVRPPRLPRPRPRPVHYPRP	-0.0353
RRIRPRPPRLPRPRPRPWSLPRP	-0.0559
RRIRQRPPRLPRPRPRPTHPPRP	0.374
RRIRWRPPRLPRPRPRPGSMPRP	-0.0806
RRIRCRPPRLPRPRPRPIYHPRP	-0.905
RRIRNRPPRLPRPRPRPPKPPRP	0.145
RRIRPRPPRLPRPRPRPNESPRP	-0.00438
RRIRDRPPRLPRPRPRPRMAPRP	0.465
RRIRLRPPRLPRPRPRPSSHPRP	-0.196
RRIRTRPPRLPRPRPRPALTPRP	0.251
RRIRVRPPRLPRPRPRPSPGPRP	0.252
RRIRSRPPRLPRPRPRPQSKPRP	-0.0711
RRIRVRPPRLPRPRPRPQSIPRP	-0.176
RRIRIRPPRLPRPRPRPMWFPRP	-0.0453

Sequence	shrunken log2 fold change
RRIRWRPPRLPRPRPRPSEKPRP	-0.153
RRIRERPPRLPRPRPRPDMQPRP	-0.184
RRIRARPPRLPRPRPRPGAWPRP	0.259
RRIRHRPPRLPRPRPRPDFQPRP	-0.00193
RRIRPRPPRLPRPRPRPEPPPRP	0.474
RRIRQRPPRLPRPRPRPHNYPRP	-0.437
RRIRKRPPRLPRPRPRPPAVPRP	0.847
RRIRERPPRLPRPRPRPFYIPRP	-0.5
RRIRMRPPRLPRPRPRPRGFPRP	0.045
RRIRRRPPRLPRPRPRPVLFPRP	0.315
RRIRNRPPRLPRPRPRPNIHPRP	-0.457
RRIRDRPPRLPRPRPRPAYDPRP	0.0094
RRIRIRPPRLPRPRPRPTCFPRP	-0.249
RRIRSRPPRLPRPRPRPEWQPRP	0.254
RRIRIRPPRLPRPRPRPGYEPRP	-0.237
RRIRRRPPRLPRPRPRPWMSPRP	0.118
RRIRHRPPRLPRPRPRPLQGPRP	0.00978
RRIRERPPRLPRPRPRPFPMPRP	-0.423
RRIRGRPPRLPRPRPRPEKHPRP	0.617
RRIRWRPPRLPRPRPRPNHRPRP	-0.0538
RRIRDRPPRLPRPRPRPWEAPRP	-0.0176
RRIRWRPPRLPRPRPRPNHSPRP	-0.409
RRIRNRPPRLPRPRPRPMNKPRP	0.0642
RRIRVRPPRLPRPRPRPGRPPRP	0.63
RRIRHRPPRLPRPRPRPPTYPRP	-0.0835

Sequence	shrunken log2 fold change
RRIRRRPPRLPRPRPRPADAPRP	0.249
RRIRMRPPRLPRPRPRPYGVPRP	-0.147
RRIRCRPPRLPRPRPRPSNHPRP	-0.718
RRIRMRPPRLPRPRPRPFDNPRP	0.0191
RRIRMRPPRLPRPRPRPSHNPRP	-0.194
RRIRKRPPRLPRPRPRPSFAPRP	0.337
RRIRSRPPRLPRPRPRPSCIPRP	-0.223
RRIRYRPPRLPRPRPRPKWHPRP	-0.358
RRIRQRPPRLPRPRPRPNILPRP	-0.233
RRIRKRPPRLPRPRPRPTEVPRP	0.158
RRIRARPPRLPRPRPRPECAPRP	1.5
RRIRMRPPRLPRPRPRPIDHPRP	0.0383
RRIRSRPPRLPRPRPRPGQWPRP	-0.0109
RRIRIRPPRLPRPRPRPHMYPRP	-0.485
RRIRPRPPRLPRPRPRPQTGPRP	0.142
RRIRVRPPRLPRPRPRPSKPPRP	-0.242
RRIRTRPPRLPRPRPRPQYMPRP	-1.01
RRIRGRPPRLPRPRPRPIPHPRP	0.196
RRIRLRPPRLPRPRPRPAEEPRP	0.133
RRIRRRPPRLPRPRPRPMFYPRP	-0.229
RRIRKRPPRLPRPRPRPICCPRP	0.583
RRIRFRPPRLPRPRPRPKHNPRP	-0.483
RRIRQRPPRLPRPRPRPDETPRP	-0.00179
RRIRYRPPRLPRPRPRPIAVPRP	-0.321
RRIRARPPRLPRPRPRPQYYPRP	-0.452

Sequence	shrunken log2 fold change
RRIRRRPPRLPRPRPRPYRNPRP	0.0114
RRIRDRPPRLPRPRPRPWYRPRP	-0.0745
RRIRDRPPRLPRPRPRPGVCPRP	0.358
RRIRSRPPRLPRPRPRPINIPRP	-0.589
RRIRNRPPRLPRPRPRPVMSPRP	0.0178
RRIRLRPPRLPRPRPRPYGCPRP	-0.318
RRIRMRPPRLPRPRPRPPVNPRP	0.648
RRIRHRPPRLPRPRPRPEYRPRP	-0.0136
RRIRRRPPRLPRPRPRPGKGPRP	0.609
RRIRNRPPRLPRPRPRPSQFPRP	-0.16
RRIRKRPPRLPRPRPRPCKWPRP	0.0523
RRIRERPPRLPRPRPRPKCQPRP	-0.178
RRIRKRPPRLPRPRPRPYSYPRP	-0.0565
RRIRARPPRLPRPRPRPYNEPRP	-0.524
RRIRARPPRLPRPRPRPENDPRP	0.085
RRIRERPPRLPRPRPRPQCIPRP	0.0341
RRIRRRPPRLPRPRPRPAFPPRP	0.356
RRIRTRPPRLPRPRPRPHRTPRP	-0.615
RRIRLRPPRLPRPRPRPKYCPRP	0.0654
RRIRHRPPRLPRPRPRPDFVPRP	-0.242
RRIRSRPPRLPRPRPRPNCNPRP	-0.473
RRIRYRPPRLPRPRPRPTCTPRP	-0.229
RRIRHRPPRLPRPRPRPISTPRP	-0.578
RRIRSRPPRLPRPRPRPHDKPRP	-0.214
RRIRARPPRLPRPRPRPNHEPRP	0.021
